Data: article PMC5727057
Several values for one entry are separate records, joined by “and”; a condition that tells them apart may be missing. Equal entries are not always repeated. Where two headings read alike, the source gives them in different places.

Key:
[1] = target: GmSKRP1 (protein used for isothermal titration calorimetry) (soybean); experiment: ITC; 40 μM GmSKRP1 in the cell titrated with 400 μM PsAvr3c from the syringe; 25 °C; 20 mM HEPES pH 7.5, 200 mM NaCl; one-site binding model; three independent experiments
[2] = target: GmSKRP1 (protein used for isothermal titration calorimetry) (soybean); experiment: as above; remark: listed apart in the source

Substance: PsAvr3c (protein used for isothermal titration calorimetry) (natural protein)
- Kd [1]: 3.35 µM
- Kd [2]: 3.38 µM and 3.52 µM and 3.14 µM
